{"source": "paper doi:10.1101/480269v2", "test_in_all_cases": "purified protein", "conditions_in_all_cases": "Mg2+ as the activating cation", "key": {"purified protein [1]": {"substrate": "NC(=O)C1=CN([C@@H]2O[C@H](COP(=O)(O)OP(=O)(O)OC[C@H]3O[C@@H](n4cnc5c(N)ncnc54)[C@H](O)[C@@H]3O)[C@@H](O)[C@H]2O)C=CC1"}, "purified protein [2]": {"substrate": "NC(=O)c1ccc[n+]([C@@H]2O[C@H](COP(=O)(O)OP(=O)(O)OC[C@H]3O[C@@H](n4cnc5c(N)ncnc54)[C@H](O)[C@@H]3O)[C@@H](O)[C@H]2O)c1"}, "purified protein [3]": {"substrate": "NC(=O)c1ccc[n+]([C@@H]2O[C@H](COP(=O)([O-])O)[C@@H](O)[C@H]2O)c1"}, "purified protein [4]": {"substrate": "Nc1ncnc2c1ncn2[C@@H]1O[C@H](COP(=O)(O)O)[C@@H](O)[C@H]1O"}}}
{"protein": "UshA (Escherichia coli K-12) (protein) YEQDKTYKITVLHTNDHHGHFWRNEYGEYGLAAQKTLVDGIRKEVAAEGGSVLLLSGGDINTGVPESDLQDAEPDFRGMNLVGYDAMAIGNHEFDNPLTVLRQQEKWAKFPLLSANIYQKSTGERLFKPWALFKRQDLKIAVIGLTTDDTAKIGNPEYFTDIEFRKPADEAKLVIQELQQTEKPDIIIAATHMGHYDNGEHGSNAPGDVEMARALPAGSLAMIVGGHSQDPVCMAAENKKQVDYVPGTPCKPDQQNGIWIVQAHEWGKYVGRADFEFRNGEMKMVNYQLIPVNLKKKVTWEDGKSERVLYTPEIAENQQMISLLSPFQNKGKAQLEVKIGETNGRLEGDRDKVRFVQTNMGRLILAAQMDRTGADFAVMSGGGIRDSIEAGDISYKNVLKVQPFGNVVVYADMTGKEVIDYLTAVAQMKPDSGAYPQFANVSFVAKDGKLNDLKIKGEPVDPAKTYRMATLNFNATGGDGYPRLDNKPGYVNTGFIDAEVLKAYIQKSSPLDVSVYEPKGEVSWQ", "values": [{"measurement": "Km", "setting": "purified protein [1]", "result": "7.0 ± 0.8", "unit": "µM"}, {"measurement": "kcat", "setting": "purified protein [1]", "result": "10.0 ± 0.2", "unit": "s⁻¹"}, {"measurement": "Km", "setting": "purified protein [2]", "result": "5.3 ± 0.6", "unit": "µM"}, {"measurement": "kcat", "setting": "purified protein [2]", "result": "19.3 ± 0.9", "unit": "s⁻¹"}, {"measurement": "Km", "setting": "purified protein [3]", "result": "11.1 ± 1.3", "unit": "µM"}, {"measurement": "kcat", "setting": "purified protein [3]", "result": "1492 ± 31", "unit": "s⁻¹"}, {"measurement": "Km", "setting": "purified protein [4]", "result": "1.2 ± 0.1", "unit": "µM"}, {"measurement": "kcat", "setting": "purified protein [4]", "result": "405 ± 4", "unit": "s⁻¹"}]}
